Source: patent US20220256794A1, “TERPENE SYNTHASES AND TRANSPORTERS” (The State of Israel, Ministry of Agriculture & Rural …, priority 2019, published 2022)

How the values were obtained:
[1] = test system: yeast cells; assay: Yeast growth (turbidity A600) in the presence of CBD; format: cell-based, Saccharomyces cerevisiae (strain Y1HGold); settings: 0.5 mM CBD; for inhibition of yeast growth in response to CBD, transporter-expressing yeast vs control yeast: 7-12 hours
Experimental: (§1) The genes were expressed in yeast and tobacco. For yeast, the ABC and PTR Transporter genes were synthesized by the TWIST Co, cloned and expressed (individually) in the yeast expression vector pESC-URA (Agilent Technologies) for expression under the yeast native gal-10 promoter. Competent Saccharomyces cerevisiae (strain Y1HGold, CloneTech) cells were prepared, transformed by each of the resulting vector and selected on yeast synthetic media lacking Uracil as previously described [GietzR. D., Methods Mol. Biol. (2014) 1205:1-12].
An alternative method is to measure the yeast growth as a function of turbidity. Transformed yeast cells were grown on URA-glucose broth at 30° C. at 200 RPM, and after 24 hours 100 μl was used to inoculate 5 ml of URA-galactose broth in the same conditions till O.D.600 of 1.5. The yeast was further diluted to OD600=0.05 with 10 ml URA-galactose, and divided into two 5 ml aliquots into separate 50 ml falcon tubes. The first falcon (control) was added 78 μl acetonitrile (the solvent that the CBD was dissolved in), and the second one was added 78 μl CBD solution in acetonitrile (final CBD concentration=0.5 mM). […]

[2] = test system: tobacco BY-2 cells; assay: CBD-induced cell death of tobacco BY-2 cells (FDA fluorescence); format: cell-based; settings: 0.5 mM CBD
From the text: (§2) For tobacco, the ABC and PTR Transporter genes were cloned into a plant binary expression vector (pGreen 0029) via Agrobacterium mediated transformation as previously described [Cohen, S. et at, Nat. Commun. (2014) 5:4026]. These genes were cloned between the cauliflower mosaic virus (CaMl,) 35S promoter and the polyadenylation signal from the nopaline synthase gene and inserted into tobacco BY2 cells and plants (var. Samson) via stable transformation..
The toxic effect and cell death activity of terpenes and cannabinoids in tobacco was assessed on cell cultures as follows: 7-day-old suspension cultured BY-2 tobacco cells at a 5-fold dilution in logarithmic growth phase, incubated in Gamborg B5 medium, was incubated in the presence of 0.5 mM CBD for 48 hours as previously described [Sirikantaramas S. et al., Plant Cell Physiol. (2005) 46:1578-1582].
Cell death in the samples was evaluated using the cell viability indicator fluorescein diacetate (FDA, Sigma-Aldrich). Cell suspension (2.5 mL) was stained with 50 μL of 0.5% fluorescein diacetate (FDA) dissolved in acetone for 10 min. The cells were rinsed three times with I mL isotonic medium to remove excess staining solution. Viability was assessed immediately using an Olympus BX50 fluorescence microscope equipped with a suitable barrier filter (excitation 460-490 nm and emission 510 nm). FDA staining of viable cells results in bright green fluorescence, while nonviable cells remain colorless.

[3] = test system: yeast cells; assay: Uptake of CBD into yeast cells; format: cell-based, Saccharomyces cerevisiae (strain Y1HGold); settings: 0.5 mM CBD; for net uptake of CBD into yeast cells compared to control (empty vector) yeast: three hour incubation, FIG. 3A and FIG. 4
Experimental: as §1
An additional strategy for determining transporter function is to measure the amount of exogenous CBD taken up and incorporated into the cells.
Transformed yeast cells were grown on URA-glucose broth at 30° C. at 200 RPM, and after 24 hours 100 μl was used to inoculate 5 ml of URA-galactose broth in the same conditions till OD600 of […]. The yeast was incubated with 0.5 mM CBD for 2-8 hours in 30° C. at 100 RPM, then centrifuged at 15000 g for 1 minute, and washed twice with 1 ml distilled water. The pellet was weighed and underwent HPLC analysis to determine the pellet's CBD content. The pellet was extracted in 1 ml methanol, and following centrifugation and filter was analyzed by HPLC using a diode-array detector and CBD was quantified against a commercial standard.

[4] = test system: tobacco BY-2 cells; assay: Uptake of CBD into tobacco BY-2 cells; format: cell-based; settings: 0.5 mM CBD
From the text: as §2
[…] The pellet was weighed and underwent HPLC analysis to determine the pellet CBD content, as indicated above.

Molecule: C=C(C)[C@@H]1CCC(C)=C[C@H]1c1c(O)cc(CCCCC)cc1O [CBD, Cannabidiol, reference compound]
- growth with CBD as % of growth without CBD ([1]; control (empty vector) yeast, 7-12 hours after initiation, FIG. 2): 42%
- fluorescence (FDA viability) of control BY2 cells in the presence of CBD ([2]; control BY2 cells, FIG. 6A top): small decrease

B1: T-AG0100-1: Cannabis PTR/NRT transporter gene product, amino acid SEQ ID NO: 53 (protein)
chain: MNMEVMSRDFDQSGGGKRGGNRAAFFVYIMEGLESMAFISNSASLVIYFFSYMNYSLTKSSTMLTNLLGTATLLSLLGGFISDTYLTRFATTLIFASIELMGYIVLLVQAHRSDLRPPKCLSITHQCEGASAGEAAILYTGLYLMALGTGGVKAALPALGADQFDPKKAKQLSTYFNWFIFSLTIGSILGVTLVVWISTDKGWDWAFAVCAIALLLSIFFISLGNPFYRNNLPKGSPLLRFLRVFVASFRNRKLPIPENADELHEIYQDKEDDNLHHEILQRTDQFKFLDRAAVIRRTEDDDNDGSNSGSEWRVCTVTEVEETKILIRMLPIILTTIFMNTCLAQLQTFSVQQSVTMDRDFIGFEIPGPSVPAIPLLFMFILIPLYDRVFVPIARRVTGIPTGISHLQRIGIGLVLSAISMTVAGFVEKKRRNVAIQHDMVDSQDALPISVFWLGYQYAIFGAADMFTLVGMLEFFYAESSAGMKALSTAISWCSLAFGYYLSSVVVEIVNKVSGGWLANNNLNRDKLENFYWLLAGLSVVNFGVYVMCASWYKYKNVEMIKKDDAST
modifications: ABC+PTR Transporter amino acid sequence (of the 12 identified gene products)
- inhibition of yeast growth in response to CBD, transporter-expressing yeast vs control yeast ([1]; FIG. 2): reduced inhibition of growth
- growth inhibition by CBD, time course of yeast growth vs empty vector yeast ([1]; 12 hour period, FIGS. 1A-B): reduced growth inhibition
- net uptake of CBD into yeast cells compared to control (empty vector) yeast [3]: reduced net uptake of CBD
- effect on the uptake of CBD in tobacco BY-2 cells ([4]; 4 hour uptake, FIG. 5): strong effect
- fluorescence (FDA viability) of transporter-expressing BY2 cells in the presence of CBD ([2]; FIG. 6A bottom): strong decrease
- cell death in response to CBD of BY-2 cells expressing the transporter ([2]; FIGS. 6A-B): increased cell death

B2: T-790-1: Cannabis ABC-B transporter gene product, amino acid SEQ ID NO: 46 (protein)
chain: MDNKTNKHRGGNGDGDDNEDQDQEDTKKNNNNNNSNKVSLLKLFSFADFYDYVLMGIGTIGAIIHGASVPIFFIFFGKLINVIGMAYLFPKEASHKVAKYSLDFVYLSIAILFSSWTEVACWMHTGERQAAKMRMAYLRAMLSQDISLFDTEASTGEVISAITSDIIVVQDALSEKVGNFLHYISRFVVGFIVGFARVWQISLVTLSIVPLIALAGGVYAYIATGLIARVRKSYVKAGEIAEEVIGNVRTVQAFAGEEKAVKMYTSALAHTYMYGRKAGLAKGLGLGFMHCTLFLSWSLLVWYVSIVVHKSIANGGESFTTMLNVVIAGLSLGQAALDISAFVRAKAAAYPIFAMIERNTASKSSAMSGRKLGKLEGHIQFNNVTFSYPSRPDVTIFNKLSLDIPSGKIVALVGGSGSGKSTVISLIERFYEPLSGEILLDGNNIKELDLKWMRQQIGLVNQEPALFATSIRENILYGKDEASLDEITRAAKLSEAISFINNLPERFETQVGERGIQLSGGQKQRIAISRAIVKNPSILLLDEATSALDAESEKSVQEALDRVMVGRTTVVVAHRLSTIRNADIIAVVQEGKIVETGCHDELISNPNSVYSSLVQLQEAAPLQRNSSLGRPPSIKFSRELSRTTTSFGASFRSDKDSISRVGADGGAVEPVKTTNVSAKRLYSMIGPDWLYGLCGTICAFIAGAQMPLFALGISHALVSYYMDWDTTKHEVKKISILFCCGAVVTVIVHGIEHLCFGTMGERLTLRVRERMFSAMLRNEIAWFDDTNNTSSMLSSRLESDATLLRTIVVDRSTILLQNVGLVVASFIIAFLLNWRITLVVLATYPLVISGHISEKLFMQGYGGNLSKAYLKANMLAGEAVSNIRTVAAFCAEQKVLDLYARELVEPSKRSFTRGQIAGIFYGISQFFIFSSYGLALWYGSVLMGKELSSFKSVMKSFMVLIVTALAMGETLALAPDLLKGNQMVASVFEVLDRKTEVSGDSGEELASVDGTIELRDIHFSYPSRPDVVIFKDFNLKVRSGKSMALVGQSGSGKSSVISIILRFYDPTSGKVLIDGKDMKKLKLKSLRKHIGLVQQEPALFATSIYENILYGKEGASESEVIEAAKLANAHSFISALPEGYSTKVGERGVQLSGGQRQRVAIARAVLKNPEILLLDEATSALDVESERVVQQALDRLMKNRTTIMVAHRLSTIKNADQISVIQDGKIIEQGTHSTLIDNTNGPYYKLINIQQQQQQQL
modifications: ABC+PTR Transporter amino acid sequence (of the 12 identified gene products)
- inhibition of yeast growth in response to CBD, transporter-expressing yeast vs control yeast ([1]; FIG. 2): reduced inhibition of growth
- net uptake of CBD into yeast cells compared to control (empty vector) yeast [3]: reduced net uptake of CBD
- effect on the uptake of CBD in tobacco BY-2 cells ([4]; 5 hour uptake, FIG. 7): strong effect

B3: T-792-1: Cannabis ABC-G transporter gene product, amino acid SEQ ID NO: 47 (protein)
chain: MASVTPSTTIDQEHYHNKKVTISRTTSTTSSNNNTNHGNPRITVVEIETANNRNASYRSSIFGADHEVSLPVVEDHQGVFLTWQDLWVTVSSGKNSNRPILRGLTGYAKPGELLAIMGPSGCGKSTLLDALAGRLNANTRQSGDILINGNKQTLAYGTSAYVTQEDTLLTTLTVREAVHYSAQLQLPDSMSSAEKKERAEMTIREMGLTDAVNTRIGGSGLGTGSKGLSGGQKRRVSICIEILTRPKLLFLDEPTSGLDSAASYYVMSSIASLDIQSRRGGGAGGRRTVVASIHQPSSEVFQLFNTLCLLSAGKIVYFGPASAANEFFTMSGFPCPSLQNPSDHFLKTINKDFDKVQKDLEQGLPIRGRPTVEEAIETLVKSYKASENCQLVQQQVSQICNKKNKSVGLMEKKRSHAGFISQCGVLTRRSFKNMYRDLGYYWFRLVIYIGLAIGLGTIFCNIGHSDGSVEARASLIMYVASFLTFMTIGGFPSFVEDMKVFGRERLNGHYSVTSFVMGNTISAQPYLVLIALIPGALAYFPPGLRGGFEHFIYFVLVLYACMMLVESLMMIVAALVPNFLLGIITGAGIQGFMMLAGGFFRLPNDLPDPFWRYPVFYISFHRYAFQGLYKNEFKGLMFVDEILGKSHKISGDEILRNKYQVNMSYSKWVDFVLLLSMVFAYRVMFLLILKISENYKTISAAFAFGRRKPSTQVMENPTATPPHA
modifications: ABC+PTR Transporter amino acid sequence (of the 12 identified gene products)
- inhibition of yeast growth in response to CBD, transporter-expressing yeast vs control yeast ([1]; FIG. 2): reduced inhibition of growth
- CBD levels in yeast cells compared to the control ([3]; 5 hour period, FIG. 3B): increase in CBD levels
